Results published in publication PMC8864007 (2022).

T1: murine HER2 (murine, UniProt P70424 23-1256)
T1 chain: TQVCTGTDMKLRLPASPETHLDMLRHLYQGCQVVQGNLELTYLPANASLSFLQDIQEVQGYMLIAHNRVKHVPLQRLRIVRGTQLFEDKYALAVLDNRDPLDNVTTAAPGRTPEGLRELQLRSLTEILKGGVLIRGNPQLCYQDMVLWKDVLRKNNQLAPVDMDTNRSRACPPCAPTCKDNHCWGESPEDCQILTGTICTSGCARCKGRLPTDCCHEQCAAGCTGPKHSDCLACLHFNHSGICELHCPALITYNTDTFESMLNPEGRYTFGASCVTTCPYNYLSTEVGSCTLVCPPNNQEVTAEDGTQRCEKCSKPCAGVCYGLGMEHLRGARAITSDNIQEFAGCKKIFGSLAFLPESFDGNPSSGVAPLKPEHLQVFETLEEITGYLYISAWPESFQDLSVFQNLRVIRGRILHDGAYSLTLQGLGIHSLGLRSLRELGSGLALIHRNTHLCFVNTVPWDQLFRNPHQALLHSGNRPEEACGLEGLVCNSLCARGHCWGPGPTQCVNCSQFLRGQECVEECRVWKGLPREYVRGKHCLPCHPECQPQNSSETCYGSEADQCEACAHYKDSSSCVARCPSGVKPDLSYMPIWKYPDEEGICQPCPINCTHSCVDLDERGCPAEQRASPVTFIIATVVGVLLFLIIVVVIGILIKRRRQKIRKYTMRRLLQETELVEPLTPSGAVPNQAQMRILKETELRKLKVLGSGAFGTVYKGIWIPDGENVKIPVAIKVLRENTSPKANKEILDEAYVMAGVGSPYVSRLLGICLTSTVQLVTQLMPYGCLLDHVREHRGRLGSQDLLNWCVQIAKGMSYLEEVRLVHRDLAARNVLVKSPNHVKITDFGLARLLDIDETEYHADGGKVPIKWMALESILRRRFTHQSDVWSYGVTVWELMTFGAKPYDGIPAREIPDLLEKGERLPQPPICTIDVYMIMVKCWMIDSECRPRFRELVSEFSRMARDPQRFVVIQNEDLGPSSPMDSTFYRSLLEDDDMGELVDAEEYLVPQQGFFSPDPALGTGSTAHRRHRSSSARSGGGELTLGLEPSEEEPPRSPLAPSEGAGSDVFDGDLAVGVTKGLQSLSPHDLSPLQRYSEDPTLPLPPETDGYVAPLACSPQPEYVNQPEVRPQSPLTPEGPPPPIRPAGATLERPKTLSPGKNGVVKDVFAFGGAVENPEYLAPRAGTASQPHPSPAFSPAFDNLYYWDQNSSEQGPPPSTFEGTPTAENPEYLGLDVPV


Tests used:
HER2-Fc protein [1] = biological target: T2, HER2-Fc protein (human, UniProt P04626 23-652); experiment: SPR
Human HER3-Fc = experiment: ELISA
Cynomolgus HER2-Fc = experiment: ELISA
Human HER2-His6 = experiment: ELISA
Canine HER2-Fc = experiment: ELISA
Human IgG Fc = experiment: ELISA
Rat HER2-Fc = experiment: ELISA
Human HER4-Fc = experiment: ELISA
Rhesus HER2-Fc = experiment: ELISA
Human EGFR-Fc = experiment: ELISA
murine HER2 = biological target: T1, murine HER2; experiment: ELISA
HER2-Fc protein [2] = biological target: T2, HER2-Fc protein; experiment: ELISA

koff (HER2-Fc protein [1]) [s⁻¹] | EC50 (Human HER3-Fc) [nM] | EC50 (Cynomolgus HER2-Fc) [nM] | EC50 (Human HER2-His6) [nM] | EC50 (Canine HER2-Fc) [nM] | EC50 (Human IgG Fc) [nM] | EC50 (Rat HER2-Fc) [nM] | EC50 (Human HER4-Fc) [nM] | EC50 (Rhesus HER2-Fc) [nM] | EC50 (Human EGFR-Fc) [nM] | EC50 (murine HER2) [nM] | EC50 (HER2-Fc protein [2]) [nM] | Binder
0.000718 | > 10000 | 1.19 | 0.69 | 1.09 | > 10000 | > 10000 | > 10000 | 1.18 | > 10000 | > 10000 | 0.77 | VHH_1028 (VHH) VHH: EVQLVESGGGLVQAGGSLRLSCAASGITFSINTMGWYRQAPGKQRELVALISSIGDTYYADSVRGRFTISRDNAKNTVYLQMNSLKPEDTAVYYCKRFRTAAQGTDYWGQGTQVTVSS
0.00071 |  |  |  |  |  |  |  |  |  |  |  | iso-SGMIB-VHH_1028 (VHH, one iso-SGMIB (non-radioactive) conjugated, mono-substituted; site not stated) VHH: EVQLVESGGGLVQAGGSLRLSCAASGITFSINTMGWYRQAPGKQRELVALISSIGDTYYADSVRGRFTISRDNAKNTVYLQMNSLKPEDTAVYYCKRFRTAAQGTDYWGQGTQVTVSS
